Results reported in patent publication US8614103B2, “Compositions and methods for treating sphingosine-1-phosphate (S1P) related ocular diseases and conditions” (Lpath, Inc., priority 2006, dated 2013).

Tests used:
[1] = system: HUVECs; assay: HUVEC migration, Matrigel chemoinvasion assay; type: cell-based, human; details: co-incubation with S1P
Procedure: FIG. 5 has two panels, A and B. In panel A, S1P is shown to promote neovascularization through induction of HUVECs tube formation and migration, which is reduced by SPHINGOMAB. […] The number of cells that migrated to the Matrigel membrane were counted in five independent fields.
Experiments were performed as described by Visentin et al. (Cancer Cell 2006 March; 9(3):225-38).

[2] = system: endothelial cell (EC) infiltration; assay: In vivo Matrigel plug assay, S1P plugs, EC infiltration; design: species or system mouse; details: systemic administration every 48 hrs
Procedure: Based on in vivo studies showing that S1P increased endothelial capillary growth into subcutaneously implanted Matrigel plugs, we speculated that SPHINGOMAB could reduce de novo BV formation in vivo. To investigate this, we employed the in vivo Matrigel Plug assay for neovascularization. In one set of experiments, Matrigel was supplemented with either 1 μM S1P, 0.5 μg/mL bFGF or 1 μg/mL VEGF and then […]. into mice (n=4). After 10 days, the mice were heparinized and injected with the fluorescent lectin, Isolectin B4-FITC, which binds to adhesion molecules expressed by vascular EC that form the growing BVs. The plugs were then excised, frozen in OCT, sectioned and viewed for FITC-stained BVs.
Sections of the plugs were then stained with hemotoxyln & eosin for evaluation of EC infiltration (FIG. 6B). The infiltration of ECs is a critical step in neo-vascularization. […] Cell infiltration is presumed to be ECs although we recognize that other cell types such as immune cells may also be stained.

[3] = Stability after thermochallenge (TM); type: physicochemical; details: thermochallenge of supernatants
Procedure: The humanized variants were tested for stability after challenge at high temperature. The approximate midpoints of the thermal unfolding transitions (TM) were determined for every humanized variant by subjecting the supernatants to temperatures ranging from 60 to 74° C. These temperatures were chosen based on the denaturation profile observed for the murine antibody molecule after thermochallenging between a broad range of temperatures between 50 and 80° C. The binding properties of each variant were determined before and after thermochallenge.

[4] = system: perivascular fibrosis; assay: Permanent myocardial infarction model, perivascular fibrosis; type: in vivo, mouse; details: 25 mg/kg from 48 hrs after surgery; two weeks
Procedure: Studies evaluated the efficacy of SPHINGOMAB to reduce cardiac scar formation after permanent myocardial infarction (MI) via ligation of the left descending coronary artery in mice. Systemic administration of 25 mg/kg SPHINGOMAB or saline was initiated 48 hrs after surgery. Antibody administration at 48 hr. was chosen to allow normal, reparative scar formation to occur during the early remodeling phase and permit beneficial, S1P-stimulated angiogenesis immediately after the MI. Two weeks after the infarct, mice were sacrificed and fibrosis was accessed by Masson's trichrome staining of the cardiac tissue. […] As a control for any non-specific wound-healing responses, sham animals underwent thoracotomy without coronary artery ligation (FIG. 7E).

[5] = system: fibroblasts (Swiss 3T3, cardiac fibroblasts, WI-38); assay: S1P-stimulated fibroblast proliferation, migration, collagen expression, myofibroblast differentiation; type: cell-based; details: 1 μg/mL antibody; 0.1-1 μM S1P
Procedure: See Example 7, below, for experimental details. […] In these experiments, fibroblasts were serum-starved and then treated with 0, 0.1, 0.5, or 1 μM S1P+/−1 μg/mL SPHINGOMAB for 12-24 hr. […] SPHINGOMAB neutralized each of these S1P effects. SPHINGOMAB reduced perivascular fibrosis in vivo in a murine model of a permanent myocardial infarction (E).
S1P makes profound contributions to wound healing by activating fibroblast migration, proliferation and collagen production; SPHINGOMAB neutralizes these effects. Several studies using multiple types of fibroblasts confirm S1P's ability to promote wound healing: 1) S1P increased Swiss-3T3 fibroblast proliferation as measured by ^3H-thymidine incorporation using standard methods (FIG. 7A); 2) S1P promoted the migration of cardiac fibroblasts in a standard scratch wound healing assay. […] In each of these assays, SPHINGOMAB neutralized S1P's. It is anticipated that ocular fibroblasts would respond similarly to S1P and SPHINGOMAB.

B1: LT1002: murine monoclonal antibody to S1P, IgG1 kappa, hybridoma clone 306D326.26 (antibody, listed as Mus sp., V domains shown)
VH: QAHLQQSDAELVKPGASVKISCKVSGFIFIDHTIHWMKQRPEQGLEWIGCISPRHDITKYNEMFRGKATLTADKSSTTAYIQVNSLTFEDSAVYFCARGGFYGSTIWFDFWGQGTTLTVS
VL: ETTVTQSPASLSMAIGEKVTIRCITTTDIDDDMNWFQQKPGEPPNLLISEGNILRPGVPSRFSSSGYGTDFLFTIENMLSEDVADYYCLQSDNLPFTFGSGTKLEIK
[1]
  effect on S1P-promoted HUVEC migration and BV formation: neutralize these effects of S1P
[2]
  EC infiltration into S1P Matrigel plugs: reduced amount of EC infiltration
[3]
  TM (approximate midpoint of the thermal unfolding transition): 65 °C
[4]
  perivascular fibrosis after MI: almost complete abrogation of perivascular fibrosis
[5]
  effect on S1P-stimulated fibroblast proliferation, migration, collagen expression, myofibroblast differentiation: neutralized
